The text below walks through data of paper PMC8156991, “The Profound Influence of Lipid Composition on the Catalysis of the Drug Target NADH Type II Oxidoreductase” (Membranes, 2021).

Substrate in this data set: CC1=CC(=O)c2ccccc2C1=O
Kind of data set: cells, lysate or membranes named. The settings on record: 33% PG + 67% PE vesicles with 1% menaquinone-7 embedded as shuttle, co-substrate NADH, 20 mM MOPS, 30 mM Na2SO4, pH 7.4, 25 °C, lipid-dependent. Format: biochemical, Caldalkalibacillus thermarum.

B1: CthNDH-2 (Caldalkalibacillus thermarum type II NADH:quinone oxidoreductase) (Caldalkalibacillus thermarum TA2.A1) (protein)
chain: MSKPSIVILGAGYGGIVAALGLQKRLNYNEADITLVNKNDYHYITTELHQPAAGTMHHDQARVGIKELIDEKKIKFVKDTVVAIDREQQKVTLQNGELHYDYLVVGLGSEPETFGIEGLREHAFSINSINSVRIIRQHIEYQFAKFAAEPERTDYLTIVVGGAGFTGIEFVGELADRMPELCAEYDVDPKLVRIINVEAAPTVLPGFDPALVNYAMDVLGGKGVEFKIGTPIKRCTPEGVVIEVDGEEEEIKAATVVWTGGVRGNSIVEKSGFETMRGRIKVDPYLRAPGHENIFIVGDCALIINEENNRPYPPTAQIAIQHGENVAANLAALIRGGSMTPFKPHIRGTVASLGRNDAIGIVGGRKVYGHAASWLKKLIDMRYLYLIGGLSLVLKKGRF
B1: the Km came out at 21.7 µM.
